{
  "source": "patent US12404328",
  "target": "CD19 expressed on the surface of KILR Raji cells (UniProt P15391)",
  "sequence (P15391 20-556 limits assumed)": "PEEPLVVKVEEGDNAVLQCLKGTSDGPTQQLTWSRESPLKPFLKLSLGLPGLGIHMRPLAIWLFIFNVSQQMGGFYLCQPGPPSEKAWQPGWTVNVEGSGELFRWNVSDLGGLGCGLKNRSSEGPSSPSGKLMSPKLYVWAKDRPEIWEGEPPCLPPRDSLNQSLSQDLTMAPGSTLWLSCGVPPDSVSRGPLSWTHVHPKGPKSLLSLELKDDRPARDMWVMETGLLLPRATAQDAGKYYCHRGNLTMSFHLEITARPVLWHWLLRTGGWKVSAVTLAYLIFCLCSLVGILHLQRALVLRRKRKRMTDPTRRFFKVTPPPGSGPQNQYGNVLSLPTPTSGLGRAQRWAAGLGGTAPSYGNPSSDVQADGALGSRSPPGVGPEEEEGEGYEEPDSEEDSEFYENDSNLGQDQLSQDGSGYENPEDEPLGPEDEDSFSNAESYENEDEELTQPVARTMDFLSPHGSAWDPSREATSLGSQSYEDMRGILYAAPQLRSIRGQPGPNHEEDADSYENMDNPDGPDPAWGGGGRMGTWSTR",
  "assay": "cell-based or functional assay",
  "data": [
    {"substance": "blinatumomab (bispecific antibody)", "values": [
      {"measurement": "EC50 of T cell-redirected killing of KILR Raji cells, +HSA (15 mg/mL)", "result": 10.8, "unit": "ng/mL"},
      {"measurement": "EC50 of T cell-redirected killing of KILR Raji cells, -HSA", "result": 2.85, "unit": "ng/mL"},
      {"measurement": "Fold change (EC50 +HSA / EC50 -HSA) of killing of KILR Raji cells", "result": 3.8, "unit": "fold"}
    ]}
  ]
}
